# Results: US20260232830A1 (JIANGSU HENGRUI PHARMACEUTICALS, published 2026)
# Target: T1, cyno MUC1-C on stably transfected CHOK1 cells (cyno)
# T1 construct: domain: MUC1-C; also called CHOK1-cyno-MUC1-C cells; Monkey MUC1-CT
# Assay: FACS, CHOK1-cyno-MUC1-C
row,Binder,Emax
1,"ChiF4-1 (antibody, human IgG1, kappa, V domains shown, murine variable regions on human IgG1 constant regions; also called chimeric antibody of F4-1) VH: QIQLQQSGPELVKPGASVKISCKASGYTFTDNYINWVKQRPGQGLEYIGWIYPGSGNNKFNEKFKGKATLTVDTSSRTAFMQLSSLTFEDSAVYFCARDYPFPSYHYGMDYWGQGTSVTVSS VL: QILLTQSPAIMSASPGERVTITCSASSSVSYIHWFQQKPGTSPKLWIYSTSNLASGVPPRFSGSGSGTSFSLTVSRMEAEDAATYYCQQRSSYPPTFGGGTKLEIKR",41700
2,"ChiM4 (antibody, human IgG1, kappa, V domains shown, murine variable regions on human IgG1 constant regions; also called chimeric antibody of M4) VH: QVQLQQSGAELARPGASVKLSCKASGYSFTTYGVPWVKQRTGQGLEWIGDIYPRSGNTYYNEKFKGKATLTADKSSDTVFMELRSLSSEDSAVYFCAREDYDNYPYALDYWGQGTSVTVSS VL: EIVLTQSPAIIAASPGEKVTITCSASSSVFNMNWYQQKPGSSPKIWIYDISKLASGVPGRFSGSGSGTSFSLTINSMEAEDVGTYYCQQRSFYPPTFGGGTKVEIKR",79500
3,"ChiF4-18 (antibody, human IgG1, kappa, V domains shown, murine variable regions on human IgG1 constant regions; also called chimeric antibody of F4-18) VH: EVQLQQSGAELVRPGSSVKMSCKTSGYTFTSYGINWVKQRPGQGLEWIGYIYLGSDYTEYNEKFKGKATLTSDTTSSTAYMQLSSLTSEDSAIYFCARSAGSLFAYWGQGTLVTVSA VL: DIQLTQSPSSLSASLGERVSLTCRASQDIGITLNWLQQEPDGTIKRLIYATSSLDSGVPKRFSGSRSGSDYSLTISSLESEDFVDYYCLQYASSPYTFGGGTKLEIKR",79800

# Target: T2, human EGFR-His antigen (human, UniProt P00533 25-645)
# T2 construct: also called hEGFR-His
# Assay: SPR Biacore 8K, antibody on Protein A chip, 1:1 fit
Kd [nM],koff [s⁻¹],kon [M⁻¹ s⁻¹],Binder
4.13,0.00072,174000,"M4H1L1-ZalH′ (bispecific antibody, human IgG1, kappa, 1:1 format: MUC1 Fab arm with Fc knob; EGFR arm VH-linker-Titin-Fc hole paired with VL-linker-Obscurin; also called anti-EGFR-MUC1 bispecific antibody) heavy: not shown light: DIQMTQSPSSLSASVGDRVTITCSASSSVFNMNWYQQKPGKSPKLWIYDISKLASGVPSRFSGSGSGTDFTLTISSLQPEDFATYYCQQRSFYPPTFGGGTKVEIKRTVAAPSVFIFPPSDEQLKSGTASVVCLLNNFYPREAKVQWKVDNALQSGNSQESVTEQDSKDSTYSLSSTLTLSKADYEKHKVYACEVTHQGLSSPVTKSFNRGEC chain 1: not shown chain 2: DIQLTQSPSSLSASVGDRVTITCRASQDISSALVWYQQKPGKAPKLLIYDASSLESGVPSRFSGSESGTDFTLTISSLQPEDFATYYCQQFNSYPLTFGGGTKVEIKGGGGSSGAPRFLTRPKASVVSVGKDATLSCQIVGNPFPQVSWEKDKQPVTAGVRFRLAQDGDLYRLKILDLQLSDSGQYVCRARNAHGEAFACLGLQVDAEA"
162,0.0275,171000,"M4H1L1-ZalH8 (bispecific antibody, human IgG1, kappa, 1:1 format: MUC1 Fab arm with Fc knob; EGFR arm VH-linker-Titin-Fc hole paired with VL-linker-Obscurin; also called anti-EGFR-MUC1 bispecific antibody) heavy: not shown light: DIQMTQSPSSLSASVGDRVTITCSASSSVFNMNWYQQKPGKSPKLWIYDISKLASGVPSRFSGSGSGTDFTLTISSLQPEDFATYYCQQRSFYPPTFGGGTKVEIKRTVAAPSVFIFPPSDEQLKSGTASVVCLLNNFYPREAKVQWKVDNALQSGNSQESVTEQDSKDSTYSLSSTLTLSKADYEKHKVYACEVTHQGLSSPVTKSFNRGEC chain 1: not shown chain 2: DIQLTQSPSSLSASVGDRVTITCRASQDISSALVWYQQKPGKAPKLLIYDASSLESGVPSRFSGSESGTDFTLTISSLQPEDFATYYCQQFNSYPLTFGGGTKVEIKGGGGSSGAPRFLTRPKASVVSVGKDATLSCQIVGNPFPQVSWEKDKQPVTAGVRFRLAQDGDLYRLKILDLQLSDSGQYVCRARNAHGEAFACLGLQVDAEA"
56.4,0.0113,201000,"M4H1L1-ZalH10 (bispecific antibody, human IgG1, kappa, 1:1 format: MUC1 Fab arm with Fc knob; EGFR arm VH-linker-Titin-Fc hole paired with VL-linker-Obscurin; also called anti-EGFR-MUC1 bispecific antibody) heavy: not shown light: DIQMTQSPSSLSASVGDRVTITCSASSSVFNMNWYQQKPGKSPKLWIYDISKLASGVPSRFSGSGSGTDFTLTISSLQPEDFATYYCQQRSFYPPTFGGGTKVEIKRTVAAPSVFIFPPSDEQLKSGTASVVCLLNNFYPREAKVQWKVDNALQSGNSQESVTEQDSKDSTYSLSSTLTLSKADYEKHKVYACEVTHQGLSSPVTKSFNRGEC chain 1: not shown chain 2: DIQLTQSPSSLSASVGDRVTITCRASQDISSALVWYQQKPGKAPKLLIYDASSLESGVPSRFSGSESGTDFTLTISSLQPEDFATYYCQQFNSYPLTFGGGTKVEIKGGGGSSGAPRFLTRPKASVVSVGKDATLSCQIVGNPFPQVSWEKDKQPVTAGVRFRLAQDGDLYRLKILDLQLSDSGQYVCRARNAHGEAFACLGLQVDAEA"
0.163,4.57e-05,280000,"M4H1L1-ZalH13 (bispecific antibody, human IgG1, kappa, 1:1 format: MUC1 Fab arm with Fc knob; EGFR arm VH-linker-Titin-Fc hole paired with VL-linker-Obscurin; also called anti-EGFR-MUC1 bispecific antibody) heavy: not shown light: DIQMTQSPSSLSASVGDRVTITCSASSSVFNMNWYQQKPGKSPKLWIYDISKLASGVPSRFSGSGSGTDFTLTISSLQPEDFATYYCQQRSFYPPTFGGGTKVEIKRTVAAPSVFIFPPSDEQLKSGTASVVCLLNNFYPREAKVQWKVDNALQSGNSQESVTEQDSKDSTYSLSSTLTLSKADYEKHKVYACEVTHQGLSSPVTKSFNRGEC chain 1: not shown chain 2: DIQLTQSPSSLSASVGDRVTITCRASQDISSALVWYQQKPGKAPKLLIYDASSLESGVPSRFSGSESGTDFTLTISSLQPEDFATYYCQQFNSYPLTFGGGTKVEIKGGGGSSGAPRFLTRPKASVVSVGKDATLSCQIVGNPFPQVSWEKDKQPVTAGVRFRLAQDGDLYRLKILDLQLSDSGQYVCRARNAHGEAFACLGLQVDAEA"

# Target: T2, human EGFR-His antigen
# Assay: as above
# Remark: another data set of the same source
Binder,Kd [nM],koff [s⁻¹],kon [M⁻¹ s⁻¹]
"ZalH2 (antibody, human IgG1, kappa, V domains shown, anti-EGFR zalutumumab variant, human IgG1) VH: QVQLVESGGGVVQPGRSLRLSCAASGFTFSTYGMHWVRQAPGKGLEWVAVIWEDGSYKYYGDSVKGRFTISRDNSKNTLYLQMNSLRAEDTAVYYCARDGITMVRGVMKDYFDYWGQGTLVTVSS VL: DIQLTQSPSSLSASVGDRVTITCRASQDISSALVWYQQKPGKAPKLLIYDASSLESGVPSRFSGSESGTDFTLTISSLQPEDFATYYCQQFNSYPLTFGGGTKVEIKR",92.9,0.00812,87400
"ZalH5 (antibody, human IgG1, kappa, V domains shown, anti-EGFR zalutumumab variant, human IgG1) VH: QVQLVESGGGVVQPGRSLRLSCAASGFTFSTYGMHWVRQAPGKGLEWVAVIWDDGSYKYYGDSVKGRFTISRDNSKNTLYLQMNSLRAEDTAVYYCARDGATMVRGVMKDYFDYWGQGTLVTVSS VL: DIQLTQSPSSLSASVGDRVTITCRASQDISSALVWYQQKPGKAPKLLIYDASSLESGVPSRFSGSESGTDFTLTISSLQPEDFATYYCQQFNSYPLTFGGGTKVEIKR",96.4,0.0125,129000
"ZalH13 (antibody, human IgG1, kappa, V domains shown, anti-EGFR zalutumumab variant, human IgG1) VH: QVQLVESGGGVVQPGRSLRLSCAASGFTFSSYAMHWVRQAPGKGLEWVAVIWDDGSYKYYGDSVKGRFTISRDNSKNTLYLQMNSLRAEDTAVYYCARDGITMVRGVMKDYFDYWGQGTLVTVSS VL: DIQLTQSPSSLSASVGDRVTITCRASQDISSALVWYQQKPGKAPKLLIYDASSLESGVPSRFSGSESGTDFTLTISSLQPEDFATYYCQQFNSYPLTFGGGTKVEIKR",1.96,0.000187,95500
"ZalH8 (antibody, human IgG1, kappa, V domains shown, anti-EGFR zalutumumab variant, human IgG1) VH: QVQLVESGGGVVQPGRSLRLSCAASGFTFSSYGMHWVRQAPGKGLEWVAVIWDDGSYKYYGDSVKGRFTISRDNSKNTLYLQMNSLRAEDTAVYYCARDGLTMVRGVMKDYFDYWGQGTLVTVSS VL: DIQLTQSPSSLSASVGDRVTITCRASQDISSALVWYQQKPGKAPKLLIYDASSLESGVPSRFSGSESGTDFTLTISSLQPEDFATYYCQQFNSYPLTFGGGTKVEIKR",483,0.0369,76500

# Further lines, results first:
Kd [nM],koff [s⁻¹],kon [M⁻¹ s⁻¹],Binder
133,0.0174,131000,"ZalH10 (antibody, human IgG1, kappa, V domains shown, anti-EGFR zalutumumab variant, human IgG1) VH: QVQLVESGGGVVQPGRSLRLSCAASGFTFSSYGMHWVRQAPGKGLEWVAVIWDDGSYKYYGDSVKGRFTISRDNSKNTLYLQMNSLRAEDTAVYYCARDGATMVRGVMKDYFDYWGQGTLVTVSS VL: DIQLTQSPSSLSASVGDRVTITCRASQDISSALVWYQQKPGKAPKLLIYDASSLESGVPSRFSGSESGTDFTLTISSLQPEDFATYYCQQFNSYPLTFGGGTKVEIKR"
120,0.0144,120000,"ZalH12 (antibody, human IgG1, kappa, V domains shown, anti-EGFR zalutumumab variant, human IgG1) VH: QVQLVESGGGVVQPGRSLRLSCAASGFTFSTYGMHWVRQAPGKGLEWVAVIWDDGSNKYYGDSVKGRFTISRDNSKNTLYLQMNSLRAEDTAVYYCARDGITMVRGVMKDYFDYWGQGTLVTVSS VL: DIQLTQSPSSLSASVGDRVTITCRASQDISSALVWYQQKPGKAPKLLIYDASSLESGVPSRFSGSESGTDFTLTISSLQPEDFATYYCQQFNSYPLTFGGGTKVEIKR"
51.6,0.00234,45400,"ZalH9 (antibody, human IgG1, kappa, V domains shown, anti-EGFR zalutumumab variant, human IgG1) VH: QVQLVESGGGVVQPGRSLRLSCAASGFTFSSYGMHWVRQAPGKGLEWVAVIWDDGSYKYYGDSVKGRFTISRDNSKNTLYLQMNSLRAEDTAVYYCARDGVTMVRGVMKDYFDYWGQGTLVTVSS VL: DIQLTQSPSSLSASVGDRVTITCRASQDISSALVWYQQKPGKAPKLLIYDASSLESGVPSRFSGSESGTDFTLTISSLQPEDFATYYCQQFNSYPLTFGGGTKVEIKR"
95.7,0.00761,79500,"ZalH7 (antibody, human IgG1, kappa, V domains shown, anti-EGFR zalutumumab variant, human IgG1) VH: QVQLVESGGGVVQPGRSLRLSCAASGFTFSSYGMHWVRQAPGKGLEWVAVIWEDGSYKYYGDSVKGRFTISRDNSKNTLYLQMNSLRAEDTAVYYCARDGITMVRGVMKDYFDYWGQGTLVTVSS VL: DIQLTQSPSSLSASVGDRVTITCRASQDISSALVWYQQKPGKAPKLLIYDASSLESGVPSRFSGSESGTDFTLTISSLQPEDFATYYCQQFNSYPLTFGGGTKVEIKR"
210,0.0275,131000,"ZalH14 (antibody, human IgG1, kappa, V domains shown, anti-EGFR zalutumumab variant, human IgG1) VH: QVQLVESGGGVVQPGRSLRLSCAASGFTFSTYGMHWVRQAPGKGLEWVAVIWYDGSNKYYADSVKGRFTISRDNSKNTLYLQMNSLRAEDTAVYYCARDGITMVRGVMKDYFDYWGQGTLVTVSS VL: DIQLTQSPSSLSASVGDRVTITCRASQDISSALVWYQQKPGKAPKLLIYDASSLESGVPSRFSGSESGTDFTLTISSLQPEDFATYYCQQFNSYPLTFGGGTKVEIKR"
302,0.0243,80500,"ZalH3 (antibody, human IgG1, kappa, V domains shown, anti-EGFR zalutumumab variant, human IgG1) VH: QVQLVESGGGVVQPGRSLRLSCAASGFTFSTYGMHWVRQAPGKGLEWVAVIWDDGSYKYYGDSVKGRFTISRDNSKNTLYLQMNSLRAEDTAVYYCARDGLTMVRGVMKDYFDYWGQGTLVTVSS VL: DIQLTQSPSSLSASVGDRVTITCRASQDISSALVWYQQKPGKAPKLLIYDASSLESGVPSRFSGSESGTDFTLTISSLQPEDFATYYCQQFNSYPLTFGGGTKVEIKR"
